# Experimental data published in patent US20130058921A1 (published 2013).
# Biological target: CS1 (human, UniProt Q9NQ25 23-335)
# Experiment: cell-based or functional assay
binder,measurement,value
"elotuzumab (antibody, V domains shown) VH: EVQLVESGGGLVQPGGSLRLSCAASGFDFSRYWMSWVRQAPGKGLEWIGEINPDSSTINYAPSLKDKFIISRDNAKNSLYLQMNSLRAEDTAVYYCARPDGNYWYFDVWGQGTLVTVSS VL: DIQMTQSPSSLSASVGDRVTITCKASQDVGIAVAWYQQKPGKVPKLLIYWASTRHTGVPDRFSGSGSGTDFTLTISSLQPEDVATYYCQQYSSYPYTFGQGTKVEIK",expanded autologous NK cell-mediated killing of multiple myeloma cells (51Cr release assay),≥ 1.7 fold
